This is an account of results in paper PMC4095729 (Alzheimer's Research & Therapy, 2014).

In the test the target is T1, Aβ1-7 peptide (Homo sapiens (deposited entity)).
T1 construct: amyloid beta peptide (Aβ), cut from amyloid precursor protein (APP), residues 1-7; Additional file 1 names the peptide Aβ1-6; also called amyloid-β1-7; Aβ residues 1–7
T1 chain: DAEFRHD
Put plainly: crystal structure; 3D6 Fab co-crystallised with Aβ1-7 or Aβ1-40 peptide, crystals grown at 22 °C; the Aβ1-40 crystals in 200 mM Zn2+; data at 100 K. The following applies: both partners purified.

B1: Recombinant 3D6 Fab (Fab, V domains shown)
VH: EVKLVESGGGLVKPGASLKLSCAASGFTFSNYGMSWVRQNSDKRLEWVASIRSGGGRTYYSDNVKGRFTISRENAKNTLYLQMSSLKSEDTALYYCVRYDHYSGSSDYWGQGTTVTVSS
VL: not shown
notes: also called Fab 3D6
For the molecule B1, the binding result is recorded as “binds”.
